Assay results reported in patent US20160138094.

Legend:
[1] = tested on: TALE_037 (TALE_97 with RVD N* opposite C6) repeat 5 RVD HD to N* (position 13 deleted) (Xanthomonas axonopodis pv. citri (engineered)); assay: inhibition
[2] = tested on: TALE_038 (TALE_97 with RVD NG opposite C6) repeat 5 RVD HD to NG (Xanthomonas axonopodis pv. citri (engineered)); assay: inhibition
[3] = inhibition of Klenow exo- primer extension, MgCl2, room temperature
[4] = 5mC at target position 6, inhibition of Klenow exo- primer extension, MgCl2, room temperature

TGGATTCCCACTCTTCAGCCCCAGCGTTACAGCATCTTCAGTGGCTTCTTCCACCGTGAGCTCTTCCGTTTCCACATCC / GGATGTGGAAACGGAAGA [t97 template / p97_rev primer]
IC50 [1, 3]: 60 nM | IC50 [2, 3]: 357 nM

TGGATTCCCACTCTTCAGCCCCAGCGTTACAGCATCTTCAGTGGCTTCTTCCACCGTGAGCTCTTCCGTTTCCACATCC / GGATGTGGAAACGGAAGA [t97_C6hmC / p97_rev]
IC50 ([1]; 5hmC at target position 6, reduction of primer extension to 50% at about this TALE concentration): 1500 nM | IC50 ([2]; 5hmC at target position 6, reduction of primer extension to 50%, estimated): 2000 nM

TGGATTCCCACTCTTCAGCCCCAGCGTTACAGCATCTTCAGTGGCTTCTTCCACCGTGAGCTCTTCCGTTTCCACATCC / GGATGTGGAAACGGAAGA [t97_C6mC / p97_rev]
IC50 [1, 4]: 51 nM | IC50 [2, 4]: 163 nM
